Data taken from patent US20160228570A1 (QUEEN MARY AND WESTFIELD COLLEGE, published 2016).

Tests used:
[1] = molecular target: T1, free radical modified BSA (bovine, UniProt P02769 25-607, modified as CII (OH, HOCl, ONOO or 2M ribose); residues not stated); test: ELISA (data not shown)
T1 construct: Written as printed, as one entry

[2] = molecular target: T2, native bovine serum albumin (bovine, UniProt P02769 25-607); test: ELISA (data not shown)
T2 construct: Control antigen; also called BSA; native BSA
T2 sequence (P02769 25-607 limits assumed): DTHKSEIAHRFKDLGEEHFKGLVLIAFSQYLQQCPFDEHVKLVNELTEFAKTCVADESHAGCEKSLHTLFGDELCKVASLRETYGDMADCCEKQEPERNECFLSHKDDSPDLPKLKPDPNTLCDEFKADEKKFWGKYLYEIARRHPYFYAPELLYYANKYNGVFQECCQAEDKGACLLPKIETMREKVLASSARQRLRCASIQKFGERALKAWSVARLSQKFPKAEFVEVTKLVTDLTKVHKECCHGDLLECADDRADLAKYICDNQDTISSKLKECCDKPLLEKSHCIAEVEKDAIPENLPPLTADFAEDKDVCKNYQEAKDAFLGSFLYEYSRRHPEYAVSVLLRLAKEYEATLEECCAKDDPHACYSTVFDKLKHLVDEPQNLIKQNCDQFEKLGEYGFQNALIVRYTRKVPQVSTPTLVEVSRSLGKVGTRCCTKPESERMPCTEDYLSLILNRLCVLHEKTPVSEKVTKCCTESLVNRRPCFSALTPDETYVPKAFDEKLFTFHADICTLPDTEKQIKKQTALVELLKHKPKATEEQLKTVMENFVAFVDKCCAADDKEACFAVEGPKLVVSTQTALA

HOCl modified CII = molecular target: T3, HOCl modified CII (bovine, UniProt P02459 201-1214, modified with HOCl; residues not stated); test: ELISA, purified scFv on coated antigen
T3 construct: also called HOCl-CII; HOCl-Collagen II
T3 sequence (P02459 201-1214): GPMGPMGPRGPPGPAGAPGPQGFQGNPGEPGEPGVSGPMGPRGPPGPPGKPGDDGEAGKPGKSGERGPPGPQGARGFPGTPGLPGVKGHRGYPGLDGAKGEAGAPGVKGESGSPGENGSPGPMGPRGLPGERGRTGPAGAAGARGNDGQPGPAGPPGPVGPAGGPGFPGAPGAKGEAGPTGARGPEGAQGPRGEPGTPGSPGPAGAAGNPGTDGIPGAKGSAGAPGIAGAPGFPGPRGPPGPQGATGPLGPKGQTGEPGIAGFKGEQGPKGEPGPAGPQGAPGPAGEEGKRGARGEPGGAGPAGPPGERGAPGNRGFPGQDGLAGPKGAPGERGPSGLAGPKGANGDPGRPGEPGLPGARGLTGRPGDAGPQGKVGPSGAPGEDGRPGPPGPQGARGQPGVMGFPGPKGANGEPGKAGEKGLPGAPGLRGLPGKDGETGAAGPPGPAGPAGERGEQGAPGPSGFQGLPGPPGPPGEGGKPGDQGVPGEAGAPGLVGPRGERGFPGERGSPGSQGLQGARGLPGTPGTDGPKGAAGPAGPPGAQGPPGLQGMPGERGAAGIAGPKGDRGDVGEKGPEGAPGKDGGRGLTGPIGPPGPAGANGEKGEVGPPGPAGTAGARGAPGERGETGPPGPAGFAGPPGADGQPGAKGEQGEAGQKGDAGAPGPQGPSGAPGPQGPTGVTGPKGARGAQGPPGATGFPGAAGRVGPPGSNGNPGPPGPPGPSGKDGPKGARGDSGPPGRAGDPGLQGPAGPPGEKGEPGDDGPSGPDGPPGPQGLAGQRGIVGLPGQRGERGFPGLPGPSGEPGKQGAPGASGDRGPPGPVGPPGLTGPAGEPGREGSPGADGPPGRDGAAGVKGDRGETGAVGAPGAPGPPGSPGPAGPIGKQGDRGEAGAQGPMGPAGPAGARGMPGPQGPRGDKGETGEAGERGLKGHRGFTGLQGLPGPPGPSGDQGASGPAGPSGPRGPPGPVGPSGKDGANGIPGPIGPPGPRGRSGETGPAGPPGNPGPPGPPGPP
Procedure: (§1) Screening for positive anti-modified CII phage clones was first performed by enzyme-linked immunosorbent assay (ELISA), as previously described (Harrison J. L, 1996). Microtiter plate (Nunc, Paisley, UK) wells were coated with 10 μg/ml native or modified CII and incubated with 100 μl phage suspension for 90 minutes. In addition, native and modified BSA were used as negative control. After removal of the supernatants, the amount of bound phage was determined using peroxidase-labeled anti-M13 antibodies (GE Healthcare: Ltd, Little Chalfont, Buckinghamshire) and developed by using 100 mM 3,3′5,5′ tetramethylbenzidine (TMB) as substrate. The reaction was monitored in an ELISA reader at 450 nm with a reference wavelength of 650 nm using GENios plate reader (TECAN, Theale Court, Reading UK) and Magellan software (TECAN, Theale Court, Reading UK)
(§2) The reactive phage clones obtained from E. coli TG-1 bacteria were used to infect E. coli HB2151 non-suppressor bacterial strain to obtain soluble scFv. […] Binding of purified scFv to modified CII was first analyzed by ELISA as above except that mouse anti-myc tag antibody (Santa Cruz Biotechnology, INC, Wembley, UK) followed by anti-mouse-HRP conjugate (Sigma, Dorset, UK) were used to probe bound scFv.

ribose-modified CII = molecular target: T4, ribose-modified CII (bovine, UniProt P02459 201-1214, glycated with 2M ribose, overnight at 37 C; residues not stated); test: ELISA, purified scFv on coated antigen
T4 construct: also called Ribose-CII; glycated CII
T4 sequence (P02459 201-1214): as above
Procedure: as §1, §2

[3] = molecular target: T5, native non-modified collagen type II (CII) (bovine, UniProt P02459 201-1214); test: ELISA, purified scFv on coated antigen
T5 construct: also called native CII
T5 sequence (P02459 201-1214): as above
Procedure: as §1, §2

peroxynitrated CII = molecular target: T6, peroxynitrated CII (bovine, UniProt P02459 201-1214, modified with peroxynitrite (ONOO); residues not stated); test: ELISA, purified scFv on coated antigen
T6 construct: also called CII modified with ONOO; peroxynitrite-modified CII
T6 sequence (P02459 201-1214): as above
Procedure: as §1, §2

T1 sequence (P02769 25-607 limits assumed): as the sequence (P02769 25-607 limits assumed) above

Row | binding result [1] | binding result [2] | binding result (HOCl modified CII) | binding result (ribose-modified CII) | binding result [3] | binding result (peroxynitrated CII) | Binder
1 | no binding | no binding | – | – | – | – | scFv 1-11E (scFv, not shown: large carriers; small tags and cut ends, its first MA and last DI may come from cloning into the fusion; also called clone 1-11E; 1-2F) scFv: EVQLLESGGGLVQPGGSLRLSCAASGFTFSSYAMSWVRQAPGKGLEWVSSIDDSGATTYYADSVKGRFTISRDNSKNTLYLQMNSLRAEDTAVYYCAKNYSSFDYWGQGTLVTVSSGGGGSGGGGSGGGGSTDIQMTQSPSSLSASVGDRVTITCRASQSISSYLNWYQQKPGKAPKLLIYYASSLQSGVPSRFSGSGSGTDFTLTISSLQPEDFATYYCQQAANYPTTFGQGTKVEIK
2 | no binding | no binding | no binding | no binding | no binding | no binding | scFv 12E (scFv, not shown: small tags and cut ends, Purified soluble scFv; also called clone 12E) scFv: EVQLLESGGGLVQPGGSLRLSCAASGFTFSSYAMSWVRQAPGKGLEWVSSINDSGTTTYYADSVKGRFTISRDNSKNTLYLQMNSLRAEDTAVYYCAKNYSAFDYWGQGTLVTVSSGGGGSGGGGSGGGGSTDIQMTQSPSSLSASVGDRVTITCRASQSISSYLNWYQQKPGKAPKLLIYAASDLQSGVPSRFSGSGSGTDFTLTISSLQPEDFATYYCQQSDSAPTTFGQGTKVEIKR
3 | no binding | no binding | – | – | – | – | scFv 6-11D (scFv, not shown: small tags and cut ends, also called clone 6-11D; 4-5H) scFv: EVQLLESGGGLVQPGGSLRLSCAASGFTFSSYAMSWVRQAPGKGLEWVSSIDTGGSYTDYADSVKGRFTISRDNSKNTLYLQMNSLRAEDTAVYYCAKSYTTFDYWGQGTLVTVSSGGGGSGGGGSGGGGSTDIQMTQSPSSLSASVGDRVTITCRASQSISSYLNWYQQKPGKAPKLLIYSASYLQSGVPSRFSGSGSGTDFTLTISSLQPEDFATYYCQQGSNSPTTFGQGTKVEIKR
